According to patent US20210032299A1 (Eli Lilly, published 2021):
Starred links: 1 amine or outer side, 2 acyl side, 3 side chain; linkers in the order of their positions; H or OH if unused. Non-standard residues stand in square brackets, D forms with d. Groups on a side chain read outwards from the residue. No end group written: not given here. *: point of attachment. C20 diacid = O=C(O)CCCCCCCCCCCCCCCCCCC(=O)*; γGlu = O=C(O)[C@H](CCC(=O)[*:2])N[*:1]; 4Pal = N[C@@H](Cc1ccncc1)C(=O)O; αMeL = CC(C)C[C@](C)(N)C(=O)O; Orn = NCCC[C@H](N)C(=O)O; AEEA = NCCOCCOCC(=O)O; Aib = CC(C)(N)C(=O)O

T1: human glucose-dependent insulinotropic peptide receptor (human, UniProt P48546 22-466)
T1 sequence (looked up): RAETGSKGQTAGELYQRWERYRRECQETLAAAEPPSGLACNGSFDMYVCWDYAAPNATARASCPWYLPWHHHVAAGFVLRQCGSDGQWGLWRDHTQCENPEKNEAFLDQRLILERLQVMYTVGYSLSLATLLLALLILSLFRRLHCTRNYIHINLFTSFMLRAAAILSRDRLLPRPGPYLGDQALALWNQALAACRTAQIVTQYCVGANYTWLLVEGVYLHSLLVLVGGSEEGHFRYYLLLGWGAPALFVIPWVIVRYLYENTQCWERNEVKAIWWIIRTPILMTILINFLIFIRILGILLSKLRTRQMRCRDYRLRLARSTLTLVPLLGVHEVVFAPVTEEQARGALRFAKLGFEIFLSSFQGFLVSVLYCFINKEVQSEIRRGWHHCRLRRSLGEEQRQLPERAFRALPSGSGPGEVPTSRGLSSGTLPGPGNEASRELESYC


Columns and labels:
Assay in all cases: cell-based or functional assay
[1] = molecular target: T1, human glucose-dependent insulinotropic …
human GLP-1 receptor = human GLP-1 receptor (human, UniProt P43220 24-463)
human glucagon receptor = human glucagon receptor (human, UniProt P47871 26-477)
human glucagon receptor, sequence (P47871 26-477): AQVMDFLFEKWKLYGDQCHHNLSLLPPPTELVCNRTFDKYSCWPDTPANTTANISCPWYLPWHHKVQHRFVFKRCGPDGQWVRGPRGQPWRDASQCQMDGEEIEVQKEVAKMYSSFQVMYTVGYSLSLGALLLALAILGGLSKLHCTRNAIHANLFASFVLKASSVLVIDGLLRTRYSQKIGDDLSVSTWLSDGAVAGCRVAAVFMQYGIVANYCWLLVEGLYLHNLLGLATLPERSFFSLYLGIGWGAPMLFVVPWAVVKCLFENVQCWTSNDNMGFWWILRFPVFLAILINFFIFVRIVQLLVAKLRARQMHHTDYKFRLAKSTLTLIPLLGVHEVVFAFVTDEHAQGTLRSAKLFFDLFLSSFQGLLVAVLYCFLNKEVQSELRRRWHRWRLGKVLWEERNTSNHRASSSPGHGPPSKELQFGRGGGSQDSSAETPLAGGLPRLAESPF

| Binder | hGIPR cAMP Rel EC50 [1] [nM] | hGLP1R cAMP Rel EC50 (human GLP-1 receptor) [µM] | hGcgR cAMP Rel EC50 (human glucagon receptor) [µM] |
| --- | --- | --- | --- |
| Y[Aib]EGTFISDYSI[αMeL]LDEK([AEEA-AEEA-γGlu-C20 diacid])HQ[Aib]DFVE[4Pal]LLATGPSSGAPPPS-NH2 (N-terminus assumed; SMILES CC[C@H](C)[C@H](NC(=O)[C@H](Cc1ccccc1)NC(=O)[C@@H](NC(=O)CNC(=O)[C@H](CCC(=O)O)NC(=O)C(C)(C)NC(=O)[C@@H](N)Cc1ccc(O)cc1)[C@@H](C)O)C(=O)N[C@@H](CO)C(=O)N[C@@H](CC(=O)O)C(=O)N[C@@H](Cc1ccc(O)cc1)C(=O)N[C@@H](CO)C(=O)N[C@H](C(=O)N[C@@](C)(CC(C)C)C(=O)N[C@@H](CC(C)C)C(=O)N[C@@H](CC(=O)O)C(=O)N[C@@H](CCC(=O)O)C(=O)N[C@@H](CCCCNC(=O)COCCOCCNC(=O)COCCOCCNC(=O)CC[C@H](NC(=O)CCCCCCCCCCCCCCCCCCC(=O)O)C(=O)O)C(=O)N[C@@H](Cc1c[nH]cn1)C(=O)N[C@@H](CCC(N)=O)C(=O)NC(C)(C)C(=O)N[C@@H](CC(=O)O)C(=O)N[C@@H](Cc1ccccc1)C(=O)N[C@H](C(=O)N[C@@H](CCC(=O)O)C(=O)N[C@@H](Cc1ccncc1)C(=O)N[C@@H](CC(C)C)C(=O)N[C@@H](CC(C)C)C(=O)N[C@@H](C)C(=O)N[C@H](C(=O)NCC(=O)N1CCC[C@H]1C(=O)N[C@@H](CO)C(=O)N[C@@H](CO)C(=O)NCC(=O)N[C@@H](C)C(=O)N1CCC[C@H]1C(=O)N1CCC[C@H]1C(=O)N1CCC[C@H]1C(=O)N[C@@H](CO)C(N)=O)[C@@H](C)O)C(C)C)[C@@H](C)CC) [Example 83] | 0.0432 | > 5 | > 5 |
| Y[Aib]EGTFISDYSI[αMeL]LD[Orn]K([AEEA-AEEA-γGlu-C20 diacid])HQ[Aib]DFVE[4Pal]LLEQGPSSGAPPPS-NH2 (N-terminus assumed; SMILES CC[C@H](C)[C@H](NC(=O)[C@H](Cc1ccccc1)NC(=O)[C@@H](NC(=O)CNC(=O)[C@H](CCC(=O)O)NC(=O)C(C)(C)NC(=O)[C@@H](N)Cc1ccc(O)cc1)[C@@H](C)O)C(=O)N[C@@H](CO)C(=O)N[C@@H](CC(=O)O)C(=O)N[C@@H](Cc1ccc(O)cc1)C(=O)N[C@@H](CO)C(=O)N[C@H](C(=O)N[C@@](C)(CC(C)C)C(=O)N[C@@H](CC(C)C)C(=O)N[C@@H](CC(=O)O)C(=O)N[C@@H](CCCN)C(=O)N[C@@H](CCCCNC(=O)COCCOCCNC(=O)COCCOCCNC(=O)CC[C@H](NC(=O)CCCCCCCCCCCCCCCCCCC(=O)O)C(=O)O)C(=O)N[C@@H](Cc1c[nH]cn1)C(=O)N[C@@H](CCC(N)=O)C(=O)NC(C)(C)C(=O)N[C@@H](CC(=O)O)C(=O)N[C@@H](Cc1ccccc1)C(=O)N[C@H](C(=O)N[C@@H](CCC(=O)O)C(=O)N[C@@H](Cc1ccncc1)C(=O)N[C@@H](CC(C)C)C(=O)N[C@@H](CC(C)C)C(=O)N[C@@H](CCC(=O)O)C(=O)N[C@@H](CCC(N)=O)C(=O)NCC(=O)N1CCC[C@H]1C(=O)N[C@@H](CO)C(=O)N[C@@H](CO)C(=O)NCC(=O)N[C@@H](C)C(=O)N1CCC[C@H]1C(=O)N1CCC[C@H]1C(=O)N1CCC[C@H]1C(=O)N[C@@H](CO)C(N)=O)C(C)C)[C@@H](C)CC) [Example 81] | 0.0282 | > 5 | > 5 |
| Y[Aib]EGTFISDYSI[αMeL]LDEK([AEEA-AEEA-γGlu-C20 diacid])HQ[Aib]DFVE[4Pal]LLAAGPSSGAPPPS-NH2 (N-terminus assumed; SMILES CC[C@H](C)[C@H](NC(=O)[C@H](Cc1ccccc1)NC(=O)[C@@H](NC(=O)CNC(=O)[C@H](CCC(=O)O)NC(=O)C(C)(C)NC(=O)[C@@H](N)Cc1ccc(O)cc1)[C@@H](C)O)C(=O)N[C@@H](CO)C(=O)N[C@@H](CC(=O)O)C(=O)N[C@@H](Cc1ccc(O)cc1)C(=O)N[C@@H](CO)C(=O)N[C@H](C(=O)N[C@@](C)(CC(C)C)C(=O)N[C@@H](CC(C)C)C(=O)N[C@@H](CC(=O)O)C(=O)N[C@@H](CCC(=O)O)C(=O)N[C@@H](CCCCNC(=O)COCCOCCNC(=O)COCCOCCNC(=O)CC[C@H](NC(=O)CCCCCCCCCCCCCCCCCCC(=O)O)C(=O)O)C(=O)N[C@@H](Cc1c[nH]cn1)C(=O)N[C@@H](CCC(N)=O)C(=O)NC(C)(C)C(=O)N[C@@H](CC(=O)O)C(=O)N[C@@H](Cc1ccccc1)C(=O)N[C@H](C(=O)N[C@@H](CCC(=O)O)C(=O)N[C@@H](Cc1ccncc1)C(=O)N[C@@H](CC(C)C)C(=O)N[C@@H](CC(C)C)C(=O)N[C@@H](C)C(=O)N[C@@H](C)C(=O)NCC(=O)N1CCC[C@H]1C(=O)N[C@@H](CO)C(=O)N[C@@H](CO)C(=O)NCC(=O)N[C@@H](C)C(=O)N1CCC[C@H]1C(=O)N1CCC[C@H]1C(=O)N1CCC[C@H]1C(=O)N[C@@H](CO)C(N)=O)C(C)C)[C@@H](C)CC) [Example 85] | 0.0359 | > 5 | > 5 |
| Y[Aib]EGTFISDYSI[αMeL]LD[Orn]K([AEEA-AEEA-γGlu-C20 diacid])HQ[Aib]DFVE[4Pal]LLETGPSSGAPPPS-NH2 (N-terminus assumed; SMILES CC[C@H](C)[C@H](NC(=O)[C@H](Cc1ccccc1)NC(=O)[C@@H](NC(=O)CNC(=O)[C@H](CCC(=O)O)NC(=O)C(C)(C)NC(=O)[C@@H](N)Cc1ccc(O)cc1)[C@@H](C)O)C(=O)N[C@@H](CO)C(=O)N[C@@H](CC(=O)O)C(=O)N[C@@H](Cc1ccc(O)cc1)C(=O)N[C@@H](CO)C(=O)N[C@H](C(=O)N[C@@](C)(CC(C)C)C(=O)N[C@@H](CC(C)C)C(=O)N[C@@H](CC(=O)O)C(=O)N[C@@H](CCCN)C(=O)N[C@@H](CCCCNC(=O)COCCOCCNC(=O)COCCOCCNC(=O)CC[C@H](NC(=O)CCCCCCCCCCCCCCCCCCC(=O)O)C(=O)O)C(=O)N[C@@H](Cc1c[nH]cn1)C(=O)N[C@@H](CCC(N)=O)C(=O)NC(C)(C)C(=O)N[C@@H](CC(=O)O)C(=O)N[C@@H](Cc1ccccc1)C(=O)N[C@H](C(=O)N[C@@H](CCC(=O)O)C(=O)N[C@@H](Cc1ccncc1)C(=O)N[C@@H](CC(C)C)C(=O)N[C@@H](CC(C)C)C(=O)N[C@@H](CCC(=O)O)C(=O)N[C@H](C(=O)NCC(=O)N1CCC[C@H]1C(=O)N[C@@H](CO)C(=O)N[C@@H](CO)C(=O)NCC(=O)N[C@@H](C)C(=O)N1CCC[C@H]1C(=O)N1CCC[C@H]1C(=O)N1CCC[C@H]1C(=O)N[C@@H](CO)C(N)=O)[C@@H](C)O)C(C)C)[C@@H](C)CC) [Example 80] | 0.0777 | > 5 | > 5 |
| Y[Aib]EGTFISDYSI[αMeL]LDEK([AEEA-AEEA-γGlu-C20 diacid])HQ[Aib]DFVE[4Pal]LLAQGPSSGAPPPS-NH2 (N-terminus assumed; SMILES CC[C@H](C)[C@H](NC(=O)[C@H](Cc1ccccc1)NC(=O)[C@@H](NC(=O)CNC(=O)[C@H](CCC(=O)O)NC(=O)C(C)(C)NC(=O)[C@@H](N)Cc1ccc(O)cc1)[C@@H](C)O)C(=O)N[C@@H](CO)C(=O)N[C@@H](CC(=O)O)C(=O)N[C@@H](Cc1ccc(O)cc1)C(=O)N[C@@H](CO)C(=O)N[C@H](C(=O)N[C@@](C)(CC(C)C)C(=O)N[C@@H](CC(C)C)C(=O)N[C@@H](CC(=O)O)C(=O)N[C@@H](CCC(=O)O)C(=O)N[C@@H](CCCCNC(=O)COCCOCCNC(=O)COCCOCCNC(=O)CC[C@H](NC(=O)CCCCCCCCCCCCCCCCCCC(=O)O)C(=O)O)C(=O)N[C@@H](Cc1c[nH]cn1)C(=O)N[C@@H](CCC(N)=O)C(=O)NC(C)(C)C(=O)N[C@@H](CC(=O)O)C(=O)N[C@@H](Cc1ccccc1)C(=O)N[C@H](C(=O)N[C@@H](CCC(=O)O)C(=O)N[C@@H](Cc1ccncc1)C(=O)N[C@@H](CC(C)C)C(=O)N[C@@H](CC(C)C)C(=O)N[C@@H](C)C(=O)N[C@@H](CCC(N)=O)C(=O)NCC(=O)N1CCC[C@H]1C(=O)N[C@@H](CO)C(=O)N[C@@H](CO)C(=O)NCC(=O)N[C@@H](C)C(=O)N1CCC[C@H]1C(=O)N1CCC[C@H]1C(=O)N1CCC[C@H]1C(=O)N[C@@H](CO)C(N)=O)C(C)C)[C@@H](C)CC) [Example 84] | 0.034 | > 5 | > 5 |
| Y[Aib]EGTFISDYSI[αMeL]LD[Orn]K([AEEA-AEEA-γGlu-C20 diacid])HQ[Aib]DFVE[4Pal]LLEGGPSSGAPPPS-NH2 (N-terminus assumed; SMILES CC[C@H](C)[C@H](NC(=O)[C@H](Cc1ccccc1)NC(=O)[C@@H](NC(=O)CNC(=O)[C@H](CCC(=O)O)NC(=O)C(C)(C)NC(=O)[C@@H](N)Cc1ccc(O)cc1)[C@@H](C)O)C(=O)N[C@@H](CO)C(=O)N[C@@H](CC(=O)O)C(=O)N[C@@H](Cc1ccc(O)cc1)C(=O)N[C@@H](CO)C(=O)N[C@H](C(=O)N[C@@](C)(CC(C)C)C(=O)N[C@@H](CC(C)C)C(=O)N[C@@H](CC(=O)O)C(=O)N[C@@H](CCCN)C(=O)N[C@@H](CCCCNC(=O)COCCOCCNC(=O)COCCOCCNC(=O)CC[C@H](NC(=O)CCCCCCCCCCCCCCCCCCC(=O)O)C(=O)O)C(=O)N[C@@H](Cc1c[nH]cn1)C(=O)N[C@@H](CCC(N)=O)C(=O)NC(C)(C)C(=O)N[C@@H](CC(=O)O)C(=O)N[C@@H](Cc1ccccc1)C(=O)N[C@H](C(=O)N[C@@H](CCC(=O)O)C(=O)N[C@@H](Cc1ccncc1)C(=O)N[C@@H](CC(C)C)C(=O)N[C@@H](CC(C)C)C(=O)N[C@@H](CCC(=O)O)C(=O)NCC(=O)NCC(=O)N1CCC[C@H]1C(=O)N[C@@H](CO)C(=O)N[C@@H](CO)C(=O)NCC(=O)N[C@@H](C)C(=O)N1CCC[C@H]1C(=O)N1CCC[C@H]1C(=O)N1CCC[C@H]1C(=O)N[C@@H](CO)C(N)=O)C(C)C)[C@@H](C)CC) [Example 82] | 0.0391 | > 5 | 3.79 |
